Results published in patent US20090311248A1 (published 2009).

How the values were obtained:
[1] = biological target: HCV E1 envelope glycoprotein of genotype 1a strain H77 on retroviral pseudoparticles (HCVpp) (Hepatitis C virus genotype 1a strain H77, UniProt P27958 1-3011); assay: cell-based or functional assay
[2] = biological target: HCV E1 envelope glycoprotein of genotype 1b (HCCl 66) on retroviral pseudoparticles (Hepatitis C virus genotype 1b); assay: cell-based or functional assay
[3] = biological target: HCV E1 envelope glycoprotein of genotype 2a (pJ6CF) on retroviral pseudoparticles (Hepatitis C virus genotype 2a, UniProt P26660 1-3033); assay: cell-based or functional assay
[4] = biological target: HCV E1 envelope glycoprotein of genotype 3a (strain S52) on retroviral pseudoparticles (Hepatitis C virus genotype 3a); assay: cell-based or functional assay
[5] = biological target: HCV E1 envelope glycoprotein of genotype 4a (strain ED43) on retroviral pseudoparticles (Hepatitis C virus genotype 4a, UniProt O39929 1-3008); assay: cell-based or functional assay
[6] = biological target: HCV E1 envelope glycoprotein of genotype 5a (strain SA13) on retroviral pseudoparticles (Hepatitis C virus genotype 5a, UniProt O91936 1-3014); assay: cell-based or functional assay
[7] = biological target: HCV E1 envelope glycoprotein of genotype 6a (strain HK-6a) on retroviral pseudoparticles (Hepatitis C virus genotype 6a); assay: cell-based or functional assay
[8] = biological target: IGP 2254 (Hepatitis C virus (HCV), N-terminal Biotin; C-terminal -CONH2); assay: BIAcore, antibody immobilized, peptide IGP 2254 in solution
[9] = biological target: T1, IGP 2137 (Hepatitis C virus (HCV)); assay: ELISA, […], antibody at 1.25 µg/mL
T1 construct: also called RMAWDM

[10] = biological target: T2, IGP 2138 (Hepatitis C virus (HCV)); assay: ELISA, […], antibody at 1.25 µg/mL
T2 construct: also called WDMMMNW

[11] = biological target: T3, IGP 2241 (Hepatitis C virus (HCV)); assay: ELISA, […], antibody at 1.25 µg/mL
T3 construct: E1 peptide

HCV E1 envelope glycoprotein of genotype 2a (pJ6CF) on retroviral pseudoparticles, sequence (P26660 whole entry): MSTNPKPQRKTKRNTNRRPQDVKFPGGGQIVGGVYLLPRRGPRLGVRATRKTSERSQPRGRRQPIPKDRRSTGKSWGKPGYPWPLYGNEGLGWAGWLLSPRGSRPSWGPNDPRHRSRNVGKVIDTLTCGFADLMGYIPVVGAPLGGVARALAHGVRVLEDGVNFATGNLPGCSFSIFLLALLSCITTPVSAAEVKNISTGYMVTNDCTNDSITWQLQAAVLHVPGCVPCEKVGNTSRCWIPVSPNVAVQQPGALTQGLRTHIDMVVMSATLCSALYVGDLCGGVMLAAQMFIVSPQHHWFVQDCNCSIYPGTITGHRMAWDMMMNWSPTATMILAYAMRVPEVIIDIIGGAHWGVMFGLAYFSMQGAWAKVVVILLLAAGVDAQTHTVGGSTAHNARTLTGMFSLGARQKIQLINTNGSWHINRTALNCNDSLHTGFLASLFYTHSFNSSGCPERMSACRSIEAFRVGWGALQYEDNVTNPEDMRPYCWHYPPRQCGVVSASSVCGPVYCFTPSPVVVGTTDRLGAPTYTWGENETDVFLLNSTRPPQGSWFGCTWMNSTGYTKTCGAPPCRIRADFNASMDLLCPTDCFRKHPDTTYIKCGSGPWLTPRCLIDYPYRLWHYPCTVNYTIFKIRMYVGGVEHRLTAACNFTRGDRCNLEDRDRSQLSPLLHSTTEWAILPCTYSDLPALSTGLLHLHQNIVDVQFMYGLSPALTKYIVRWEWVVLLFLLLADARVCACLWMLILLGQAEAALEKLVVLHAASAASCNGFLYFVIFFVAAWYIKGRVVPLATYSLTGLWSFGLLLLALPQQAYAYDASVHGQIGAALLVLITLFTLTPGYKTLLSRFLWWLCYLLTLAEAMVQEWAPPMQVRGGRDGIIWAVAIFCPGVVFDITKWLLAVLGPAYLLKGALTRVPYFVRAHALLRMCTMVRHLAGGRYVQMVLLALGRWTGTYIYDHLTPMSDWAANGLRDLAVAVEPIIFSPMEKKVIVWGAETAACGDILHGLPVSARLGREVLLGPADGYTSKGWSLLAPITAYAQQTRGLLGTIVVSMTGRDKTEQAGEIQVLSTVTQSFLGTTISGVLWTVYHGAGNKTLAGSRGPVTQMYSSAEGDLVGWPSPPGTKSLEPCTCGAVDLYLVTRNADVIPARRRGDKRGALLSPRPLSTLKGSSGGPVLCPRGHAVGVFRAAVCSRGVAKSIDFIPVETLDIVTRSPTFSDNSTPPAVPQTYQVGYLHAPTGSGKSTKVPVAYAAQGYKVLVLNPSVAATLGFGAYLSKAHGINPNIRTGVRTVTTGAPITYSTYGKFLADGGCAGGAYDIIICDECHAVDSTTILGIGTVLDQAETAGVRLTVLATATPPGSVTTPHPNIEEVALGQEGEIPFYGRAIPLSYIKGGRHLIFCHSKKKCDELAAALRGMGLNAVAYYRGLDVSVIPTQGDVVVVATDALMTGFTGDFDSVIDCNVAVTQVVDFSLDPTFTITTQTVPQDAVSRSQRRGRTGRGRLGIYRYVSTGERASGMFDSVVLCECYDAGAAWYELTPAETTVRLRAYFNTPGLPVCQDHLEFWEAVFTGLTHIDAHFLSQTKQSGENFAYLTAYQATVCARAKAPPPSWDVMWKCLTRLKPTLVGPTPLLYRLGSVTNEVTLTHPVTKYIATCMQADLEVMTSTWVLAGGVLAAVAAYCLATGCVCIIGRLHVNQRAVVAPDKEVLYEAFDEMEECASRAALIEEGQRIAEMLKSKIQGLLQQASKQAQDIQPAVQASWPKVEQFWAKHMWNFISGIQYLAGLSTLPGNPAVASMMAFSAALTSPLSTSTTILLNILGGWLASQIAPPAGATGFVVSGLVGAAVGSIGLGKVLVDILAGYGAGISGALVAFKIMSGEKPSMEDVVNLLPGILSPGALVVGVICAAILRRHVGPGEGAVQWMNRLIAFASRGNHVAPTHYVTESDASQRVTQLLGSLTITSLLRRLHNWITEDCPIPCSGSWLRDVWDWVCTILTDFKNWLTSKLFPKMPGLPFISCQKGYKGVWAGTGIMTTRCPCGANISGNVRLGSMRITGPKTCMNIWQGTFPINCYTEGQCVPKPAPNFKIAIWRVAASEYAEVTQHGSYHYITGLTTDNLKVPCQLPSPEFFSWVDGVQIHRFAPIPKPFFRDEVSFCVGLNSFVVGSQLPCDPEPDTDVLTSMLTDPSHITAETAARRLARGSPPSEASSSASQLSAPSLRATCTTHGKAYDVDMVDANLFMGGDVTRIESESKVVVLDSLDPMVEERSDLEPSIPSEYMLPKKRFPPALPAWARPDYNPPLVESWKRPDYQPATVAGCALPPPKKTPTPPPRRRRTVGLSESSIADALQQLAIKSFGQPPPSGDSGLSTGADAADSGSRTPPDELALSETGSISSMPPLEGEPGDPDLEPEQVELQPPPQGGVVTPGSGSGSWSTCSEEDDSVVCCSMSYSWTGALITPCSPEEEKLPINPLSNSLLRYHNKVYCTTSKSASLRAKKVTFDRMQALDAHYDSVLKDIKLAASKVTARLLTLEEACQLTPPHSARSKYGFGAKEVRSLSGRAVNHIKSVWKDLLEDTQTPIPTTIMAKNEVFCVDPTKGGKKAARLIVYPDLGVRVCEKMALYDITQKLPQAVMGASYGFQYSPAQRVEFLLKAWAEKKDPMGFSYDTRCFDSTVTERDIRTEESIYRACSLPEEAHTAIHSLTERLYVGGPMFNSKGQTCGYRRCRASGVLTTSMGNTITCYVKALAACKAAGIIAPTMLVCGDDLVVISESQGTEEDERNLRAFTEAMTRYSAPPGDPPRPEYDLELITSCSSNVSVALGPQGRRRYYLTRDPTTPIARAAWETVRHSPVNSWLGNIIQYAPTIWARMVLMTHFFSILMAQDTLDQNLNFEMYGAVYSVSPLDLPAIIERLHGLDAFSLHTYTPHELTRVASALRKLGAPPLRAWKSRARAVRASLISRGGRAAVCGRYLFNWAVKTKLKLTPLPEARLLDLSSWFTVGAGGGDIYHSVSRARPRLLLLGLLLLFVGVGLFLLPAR

| Binder | lowest concentration of antibody in µg/ml exhibiting at least 50% neutralization (HCVpp) [1] [µg/mL] | lowest concentration of antibody in µg/ml exhibiting at least 50% neutralization (HCVpp) [2] [µg/mL] | lowest concentration of antibody in µg/ml exhibiting at least 50% neutralization (HCVpp) [3] [µg/mL] | lowest concentration of antibody in µg/ml exhibiting at least 50% neutralization (HCVpp) [4] [µg/mL] | lowest concentration of antibody in µg/ml exhibiting at least 50% neutralization (HCVpp) [5] [µg/mL] | lowest concentration of antibody in µg/ml exhibiting at least 50% neutralization (HCVpp) [6] [µg/mL] | lowest concentration of antibody in µg/ml exhibiting at least 50% neutralization (HCVpp) [7] [µg/mL] | Kd [8] [pM] | koff [8] [s⁻¹] | kon [8] [M⁻¹ s⁻¹] | binding result [9] | binding result [10] | binding result [11] |
| --- | --- | --- | --- | --- | --- | --- | --- | --- | --- | --- | --- | --- | --- |
| 17H1 (antibody, V domains shown, also called 17H1D9; IGH 520) VH: QVQFVQSGAEVKKPGASVKVSCKASGYTFTRHAIHWVRQAPGQRLEWMGWINPGNGNAKYSQKFQGRVTITRDTPASTVYMELSSLRSEDMGVYYCARDGGYSHDYSYFYGLDVWGPGTTVIVSS VL: QSVLTQPPSASGTPGQRVTISCSGSSSNIGGNFVDWYQQFPGTAPKLLIYTNDQRPSGVPARFSGSKSGTSASLAISGLRSEDEADYYCAAWDDIVNGWVFGGGTKLTVRG | 3.1 | 6.2 | 50 | < 50 | < 1 | < 1 | 6.2 | 150 | 0.000357 | 2.35e+06 | – | – | – |
| 48G5 (antibody, V domains shown, also called 48G5C4; IGH 526) VH: QVQLVQSGAEVKRPGASVKVSCKASGYTFTSYAIHWVRQAPGQRLEWMGWINPGNGNAKYSQRFQGRVIISRDTSATTSYMELSSLTSEDTAVYSCARDRGFDLLTGHYLGLDPWGQGTLVTVSS VL: not shown | < 1 | 12.5 | 50 | > 50 | 6.2 | 1.6 | 3.1 | 200 | 0.000305 | 1.54e+06 | no binding (tested: 1.25 µg/ml) | no binding (tested: 1.25 µg/ml) | no binding (tested: 1.25 µg/ml) |
